{
  "source": "paper PMC13500710",
  "experiment_in_all_cases": "EMSA",
  "key": {"ORC1 WHD": {"target": "T1, ORC1 WHD (Homo sapiens, UniProt Q13415 783-861)", "T1 sequence": "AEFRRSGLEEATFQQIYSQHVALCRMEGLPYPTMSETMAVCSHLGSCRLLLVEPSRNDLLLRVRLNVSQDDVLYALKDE"}, "ORC1 BAH domain": {"target": "T2, ORC1 BAH domain (Homo sapiens, UniProt Q13415 1-200)", "T2 sequence": "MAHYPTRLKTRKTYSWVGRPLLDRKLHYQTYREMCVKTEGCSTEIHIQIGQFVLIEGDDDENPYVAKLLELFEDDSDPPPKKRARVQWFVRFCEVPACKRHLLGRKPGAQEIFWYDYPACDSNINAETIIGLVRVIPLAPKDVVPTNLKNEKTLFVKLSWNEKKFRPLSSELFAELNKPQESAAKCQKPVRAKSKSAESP"}, "ORC1 mutant (EYYE)": {"target": "T3, ORC1 mutant (EYYE) (Homo sapiens, UniProt Q13415 1-861, R297E;S450Y;T593Y;R846E)", "T3 sequence": "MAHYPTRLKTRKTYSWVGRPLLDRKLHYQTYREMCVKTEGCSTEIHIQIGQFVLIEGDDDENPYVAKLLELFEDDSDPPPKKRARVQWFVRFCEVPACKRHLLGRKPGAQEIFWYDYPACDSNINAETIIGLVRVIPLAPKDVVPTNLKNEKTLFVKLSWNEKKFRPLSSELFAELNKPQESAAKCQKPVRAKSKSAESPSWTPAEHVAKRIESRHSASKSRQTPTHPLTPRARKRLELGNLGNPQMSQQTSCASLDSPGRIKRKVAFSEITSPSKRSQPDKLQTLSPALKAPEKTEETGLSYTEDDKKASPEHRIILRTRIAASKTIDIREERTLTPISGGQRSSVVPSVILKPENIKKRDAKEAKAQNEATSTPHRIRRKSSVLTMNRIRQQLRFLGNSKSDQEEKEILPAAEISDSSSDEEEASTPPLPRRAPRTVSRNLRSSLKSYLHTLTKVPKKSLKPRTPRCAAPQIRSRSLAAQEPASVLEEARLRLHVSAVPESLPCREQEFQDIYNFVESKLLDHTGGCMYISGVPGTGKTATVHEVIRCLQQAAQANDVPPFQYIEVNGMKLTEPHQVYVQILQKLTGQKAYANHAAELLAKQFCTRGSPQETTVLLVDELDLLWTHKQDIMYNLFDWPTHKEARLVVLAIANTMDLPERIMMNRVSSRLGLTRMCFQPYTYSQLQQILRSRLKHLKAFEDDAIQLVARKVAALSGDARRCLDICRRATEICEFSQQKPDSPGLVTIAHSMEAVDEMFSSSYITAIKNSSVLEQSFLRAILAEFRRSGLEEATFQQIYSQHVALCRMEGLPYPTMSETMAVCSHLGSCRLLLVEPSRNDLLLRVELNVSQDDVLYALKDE"}, "ORC1 full length [1]": {"target": "T4, ORC1 full length (Homo sapiens, UniProt Q13415 1-861)", "T4 sequence": "T3 sequence with E297R, Y450S, Y593T, E846R"}, "ORC1 full length [2]": {"target": "T4, ORC1 full length", "remark": "listed apart in the source"}, "ORC1 full length [3]": {"target": "T4, ORC1 full length", "remark": "listed apart in the source"}},
  "note": "Changes are numbered by the printed parent chain. Read-outs that look alike come from different tables or passages of the source.",
  "data": [
    {"binder": "GAGAACGCACUGCGCGCCCACCGCCACGCCACGCGCGUAC (ssRNA)", "note": "[RM9, biotinylated]", "values": [
      {"measurement": "binding result", "setting": "ORC1 WHD", "value": "no binding"},
      {"measurement": "binding result", "setting": "ORC1 BAH domain", "value": "no binding"},
      {"measurement": "binding result", "setting": "ORC1 mutant (EYYE)", "value": "no binding"}
    ]},
    {"binder": "CAGCCGCCCACUUUUGACAGGCCUGGGCGGGCUUCGCUUA (ssRNA)", "note": "[MYC1, 32P]", "values": [
      {"measurement": "binding result", "setting": "ORC1 full length [1]", "value": "no binding"}
    ]},
    {"binder": "GTACGCGCGTGGCGTGGCGGTGGGCGCGCAGTGCGTTCTC (ssDNA)", "note": "[dRM9]", "values": [
      {"measurement": "binding result", "setting": "ORC1 full length [1]", "value": "no binding"}
    ]},
    {"binder": "CAGCCGCCCACUUUUGACAGGCCUGGGCGGGCUUCGCUUA (ssRNA)", "note": "[MYC1, biotinylated]", "values": [
      {"measurement": "binding result", "setting": "ORC1 full length [2]", "value": "no binding"}
    ]},
    {"binder": "GAGCUCCCAAAUCUCUCCAGAUCUGCUAUCUCUCCUUCCU (ssRNA)", "note": "[MYC2]", "values": [
      {"measurement": "binding result", "setting": "ORC1 full length [3]", "value": "no binding"}
    ]},
    {"binder": "GAUGGGAGGAAACGCUAAAGCCCAAGGUUUCAGAGGUGAU (ssRNA)", "note": "[MYC3]", "values": [
      {"measurement": "binding result", "setting": "ORC1 full length [3]", "value": "no binding"}
    ]}
  ]
}
